Among the data in article PMC4259888 are stoichiometry N values, retold here.

Assay [1] deals with HIV-1 CA hexamers (A14C/E45C/W184A/M185A) (HIV-1). As to the kind of experiment: SEC; size-exclusion chromatographic profiles of purified individual CA hexamers, pentamers and monomers. Background: In gel filtration, larger molecules generally elute earlier.
Assay [2] deals with HIV-1 CA pentamers (A21C/E22C/W184A/M185A) (HIV-1). Described as above.

The term stoichiometry N denotes a count of units in the complex or per binding partner. In assay [1], “HIV-1 CA hexamers (A14C/E45C/W184A/M185A) (natural protein)” showed a stoichiometry N of 6.
In assay [2], “HIV-1 CA pentamers (A21C/E22C/W184A/M185A) (natural protein)” had a stoichiometry N of 5.
